Data taken from patent US20090298196A1 (published 2009).
Ends that are not written are not given here.

T1: peptide of sequence no. 1 (GEPGDDAPS, amino acid nos. 757 to 765 of human type 2 collagen) (human, also: biotin-labeled in DELFIA screening, immunogen form had a C-terminal cysteine added)
T1 construct: also called biotin-labeled target antigen peptide
T1 peptide: GEPGDDAPS

T2: peptide of sequence no. 2 (GPPGPQG, amino acid nos. 769 to 775 of human type 2 collagen) (human, also: immunogen form had an N-terminal cysteine added)
T2 peptide: GPPGPQG


Legend:
[1] = molecular target: T1, peptide of sequence no. 1 (GEPGDDAPS, …); test: characterisation of the antibody (peptide immunisation and DELFIA screening)
Method: (§1) The screening was done using the time-resolved fluorescence immunoassay (DELFIA, Amersham, registered trademark) described below. 50 μl measurement buffer solution (50 mM tris hydrochloric acid buffer solution (pH 7.5) containing 150 mM NaCl, 0.01% Tween80, 0.5% BSA and 0.05% NaN₃), 50 μl culture supernatant and 50 μl labeled antigen (measurement buffer solution containing 20 ng/ml biotin-labeled target antigen peptide and 100 ng/ml europium-labeled streptoavidine (manufactured by Perkin-Elmer Life Science)) were consecutively added to microtiter plates (manufactured by Sumitomo Bakelite) with solidified anti-mouse IgG antibodies (manufactured by Shibayagi), and a reaction was conducted at 4° C. for 16 hours. After washing the plates twice using 200 μl washing solution (150 mM NaCl, 0.02% NaN₃ and 0.01% Tween20), 150 μl enhancement solution (manufactured by Perkin-Elmer Life Science) were added, and the time-resolved fluorescence was measured using 1420ARVOsx Multilabel Counter (manufactured by Perkin-Elmer Life Science). One well with high reactivity was selected by means of this screening, cloning was repeated twice using the limiting dilution method, and the presence of antibody-producing hybridoma TAG-6G4 was established. […]

[2] = molecular target: T2, peptide of sequence no. 2 (GPPGPQG, …); test: as above
Method: as §1

| binding result [1] | binding result [2] | Binder |
| --- | --- | --- |
| binds |  | 6G4 antibody (monoclonal antibody produced by hybridoma TAG-6G4) (antibody, mouse IgG1, V domains shown, Mouse IgG1(k), 150 kDa, H chain 50 kDa and L chain 27 kDa; It was labeled with europium cryptate for the HTRF assay; also called 6G4 antibodies; cryptate-labeled 6G4 antibodies) VH: EVQLVESGGSLVQPGGSLKLSCAASGFTFNNYGMSWVRQIPDKRLELVATITGNGHSTYYPVSVRGRFTISRDNAKNTLYLQMSSLKSEDTAMYYCVRGYSNFAFWGQGTTLTVSS VL: not shown |
|  | binds | 2E6 antibody (monoclonal antibody produced by hybridoma TAG-2E6) (antibody, V domains shown, Mouse IgG2b(k), 150 kDa, H chain 50 kDa and L chain 27 kDa; It was labeled with XL665 for the HTRF assay and immobilised on a carrier column for purification; also called 2E6 antibodies; XL665-labeled 2E6 antibodies) VH: QVTLKESGPGILQPSQTLSLTCSFSGFSLSTYGMGVGWIRQPSGKGLEWLAHIWWNDNKYYNTTLKSRLTISKDTSNKQVFLKIASVDTADTATYYCARIERWDPWFAYWGQGTLVTVSA VL: DVVMTQTPLSLPVSLGDQASISCRSSQSLVYSNGNTYFHWYLQKPGQSPKLLIYKVSNRFSGVPDRFSGSGSGTDFTLKISRVEAEDLGVYFCSQSTHVPLTFGAGTKLELKR |
